Measurements from PMC7094161, “An Alternative Pin1 Binding and Isomerization Site in the N-Terminus Domain of PSD-95” (Frontiers in Molecular Neuroscience, 2020).

Tests used:
Assay in all cases: FRET or BRET; FRET/FLIM: EGFP fluorescence lifetime of EKAR constructs (WW domain and peptide on one chain) in fixed, mounted COS cells; serum in the medium
Conditions in all cases: partners not purified
[1] = target: T1, PSD-95 T19 peptide of the EKAR construct (UniProt P31016 14-24)
T1 construct: PSD-95 peptide around T19 put in place of the CDC25C peptide; 11 residues, the text says 10-mer; On one chain with m14 (see its note); also called EKAR T19; EKAR_(cyto)T19; source: COS cells, transfected, in cells
T1 peptide (looked up): YQDEDTPPLEH

[2] = target: T2, PSD-95 S35 peptide of the EKAR construct (UniProt P31016 30-40)
T2 construct: PSD-95 peptide around S35 put in place of the CDC25C peptide; On one chain with m14 (see its note); also called EKAR S35; source: COS cells, transfected, in cells
T2 peptide (looked up): PNQANSPPVIV

[3] = target: T3, PSD-95 S25 peptide of the EKAR construct (UniProt P31016 20-30)
T3 construct: PSD-95 peptide around S25 put in place of the CDC25C peptide; On one chain with m14 (see its note); also called EKAR S25; source: COS cells, transfected, in cells
T3 peptide (looked up): PPLEHSPAHLP

EGFP fluorescence lifetime [1]: 1.72 ns
EGFP fluorescence lifetime [2]: 1.81 ns
EGFP fluorescence lifetime [3]: 1.69 ns
B1: Pin1 WW domain of the EKAR construct (domain or fragment, UniProt Q13526 5-39, looked up)
chain: EKLPPGWEKRMSRSSGRVYYFNHITNASQWERPSG
notes: Pin1 WW domain as in the EKAR construct (Harvey et al., 2008); source: COS cells, transfected, in cells
